Consider three molecules from publication PMC6888640, “Key Factors for a One-Pot Enzyme Cascade Synthesis of High Molecular Weight Hyaluronic Acid” (International Journal of Molecular Sciences, 2019).

Data set [1] addresses T1, AtGlcAK (Arabidopsis thaliana, UniProt Q93ZC9).
T1 construct: gene GLCAK1
T1 sequence (Q93ZC9 1-362): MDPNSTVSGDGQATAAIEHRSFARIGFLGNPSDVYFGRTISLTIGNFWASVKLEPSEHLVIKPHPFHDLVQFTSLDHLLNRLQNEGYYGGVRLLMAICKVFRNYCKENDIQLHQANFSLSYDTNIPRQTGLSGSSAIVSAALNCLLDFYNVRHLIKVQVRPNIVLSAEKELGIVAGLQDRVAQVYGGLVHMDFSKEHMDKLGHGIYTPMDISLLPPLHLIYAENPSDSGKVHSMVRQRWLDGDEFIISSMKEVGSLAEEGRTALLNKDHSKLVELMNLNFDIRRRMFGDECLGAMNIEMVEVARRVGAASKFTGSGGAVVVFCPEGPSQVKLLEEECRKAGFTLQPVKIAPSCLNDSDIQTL
As to conditions: substrate inhibition; 5 mM GlcA, 5 mM MgCl2, 100 mM HEPES pH 7.5, 25 °C.

Substrate in data set [2]: Nc1ncnc2c1ncn2[C@@H]1O[C@H](COP(=O)(O)OP(=O)(O)OP(=O)(O)O)[C@@H](O)[C@H]1O
Nature of the data set: purified protein. As to conditions: apparent, substrate-inhibition fit, 5 mM GlcA, 5 mM MgCl2, 100 mM HEPES pH 7.5, 25 °C.

Substrate in data set [3]: O=P(O)(O)O[C@H]1O[C@H](CO)[C@@H](O)[C@H](O)[C@H]1O
The data set can be described thus: initial rates by multiplexed capillary electrophoresis; Michaelis-Menten fit. It counts as biochemical, Arabidopsis thaliana. Particulars: 5 mM UTP, 15 mM MgCl2, 100 mM HEPES pH 8, 25 °C. The source says: (§1) initial rates by multiplexed capillary electrophoresis; Michaelis-Menten fit on AtUSP

Substrate in data set [4]: O=c1ccn([C@@H]2O[C@H](COP(=O)(O)OP(=O)(O)OP(=O)(O)O)[C@@H](O)[C@H]2O)c(=O)[nH]1
The description is as above. It counts as biochemical, Arabidopsis thaliana. Particulars: 5 mM Glc-1-P, 15 mM MgCl2, 100 mM HEPES pH 8, 25 °C.
Excerpt: as §1

In data set [1], `Nc1ncnc2c1ncn2[C@@H]1O[C@H](COP(=O)(O)OP(=O)(O)OP(=O)(O)O)[C@@H](O)[C@H]1O` [ATP] had an AtGlcAK of 2.87 mM.

B1: AtGlcAK (Arabidopsis thaliana) (protein)
chain: T1 sequence (Q93ZC9 1-362)
A word on the Km: it is the substrate concentration at which the rate is half of its maximum. In the case of B1, the Km in data set [2] worked out at 8560 µM.

B2: AtUSP (Arabidopsis thaliana) (protein)
chain: ASTVDSNFFSSVPALHSNLGLLSPDQIELAKILLENGQSHLFQQWPELGVDDKEKLAFFDQIARLNSSYPGGLAAYIKTAKELLADSKVGKNPYDGFSPSVPSGENLTFGTDNFIEMEKRGVVEARNAAFVLVAGGLGERLGYNGIKVALPRETTTGTCFLQHYIESILALQEASNKIDSDGSERDIPFIIMTSDDTHSRTLDLLELNSYFGMKPTQVHLLKQEKVACLDDNDARLALDPHNKYSIQTKPHGHGDVHSLLYSSGLLHKWLEAGLKWVLFFQDTNGLLFNAIPASLGVSATKQYHVNSLAVPRKAKEAIGGISKLTHVDGRSMVINVEYNQLDPLLRASGFPDGDVNCETGFSPFPGNINQLILELGPYKDELQKTGGAIKEFVNPKYKDSTKTAFKSSTRLECMMQDYPKTLPPTARVGFTVMDIWLAYAPVKNNPEDAAKVPKGNPYHSATSGEMAIYRANSLILQKAGVKVEEPVKQVLNGQEVEVWSRITWKPKWGMIFSDIKKKVSGNCEVSQRSTMAIKGRNVFIKDLSLDGALIVDSIDDAEVKLGGLIKNNGWTMESVDYKDTSVPEEIRIRGFRFNKVEQLEKKLTQPGKFSVED
notes: full-length synthetic codon-optimized gene, pET-16b(+), N-terminal His10 tag, E. coli BL21(DE3), IMAC
Take B2: the Km is 580 µM in data set [3] and 440 µM in data set [4].
